Measurements: patent US20040096950

B1: BACE enzyme (refolded recombinant BACE as used in the fluorimetric activity assay) (protein)
chain: LPRETDEEPEEPGRRGSFVEMVDNLRGKSGQGYYVEMTVGSPPQTLNILVDTGSSNFAVGAAPHPFLHRYYQRQLSSTYRDLRKGVYVPYTQGKWEGELGTDLVSIPHGPNVTVRANIAAITESDKFFINGSNWEGILGLAYAEIARPDDSLEPFFDSLVKQTHVPNLFSLQLCGAGFPLNQSEVLASVGGSMIIGGIDHSLYTGSLWYTPIRREWYYEVIIVRVEINGQDLKMDCKEYNYDKSIVDSGTTNLRLPKKVFEAAVKSIKAASSTEKFPDGFWLGEQLVCWQAGTTPWNIFPVISLYLMGEVTNQSFRITILPQQYLRPVEDVATSQDDCYKFAISQSSTGTVMGAVIMEGFYVVFDRARKRIGFAVSACHVHDEFRTAAVEGPFVTLDMEDCGYNIPQTDES
B2: Clostripain (Cp; EC 3.4.22.8, from Worthington or Sigma C7403) (protein)
chain: NKNQKVTIMYYCDADNNLEGSLLNDIEEMKTGYKDSPNLNLIALVDRSPRYSSDEKVLGEDFSDTRLYKIEHNKANRLDGKNEFPEISTTSKYEANMGDPEVLKKFIDYCKSNYEADKYVLIMANHGGGAREKSNPRLNRAICWDDSNLDKNGEADCLYMGEISDHLTEKQSVDLLAFDACLMGTAEVAYQYRPGNGGFSADTLVASSPVVWGPGFKYDKIFDRIKAGGGTNNEDDLTLGGKEQNFDPATITNEQLGALFVEEQRDSTHANGRYDQHLSFYDLKKAESVKRAIDNLAVNLSNENKKSEIEKLRGSGIHTDLMHYFDEYSEGEWVEYPYFDVYDLCEKINKSENFSSKTKDLASNAMNKLNEMIVYSFGDPSNNFKEGKNGLSIFLPNGDKKYSTYYTSTKIPHWTMQSWYNSIDTVKYGLNPYGKLSWCKDGQDPEINKVGNWFELLDSWFDKTNDVTGGVNHYQW

Assays:
[1] = molecular target: OM 99
[2] = molecular target: BACE N->Q R56KR57K
[3] = molecular target: BACE N->Q R56KR57K no His
[4] = molecular target: BACE WT R56KR57K

Protein | activity (fluorimetric assay with the fluorescent peptide R-E(EDANS)-E-V-N-L-*D-A-E-F-K(DABCYL)-R-OH as substrate) [1] | Cleavage position (ESI-TOF-MS), final fragment, observed parent mass 46655 [2] | Cleavage position (ESI-TOF-MS), first intermediate fragment at 30-60 minutes post activation, observed parent mass 45838.30 [3] | Cleavage position (ESI-TOF-MS), fragment formed on digestion beyond 60 minutes, observed parent mass 44228.03 [3] | Cleavage position (ESI-TOF-MS), final fragment, observed parent mass 45783 [4] | Cleavage position (ESI-TOF-MS), first intermediate fragment [4]
B1 | 1 mM OM 99 completely inhibits activity. |  |  |  |  | 
B2 |  | MASMTGGQQMGRGSMAGVLPAHGTQHGIRLPLRSGLGGAPLGLR↓ | MASMTGGQQMGRGSMAGVLPAHGTQHGIRLPLRSGLGGAPLGLR ↓ | EEPEEPGK ↓ KGSFVEMV . . . | MASMTGGQQMGRGSMAGVLPAHGTQHGIRLPLRSGLGGAPLGLR↓ | MASMTGGQQMGR⇓GSMAGVLPAHGT . . .
